Reference: patent US20130172262A1 (ALPHABETA, published 2013)

B1: recombinant human Bri2(90-236) (other, not shown: small tags and cut ends)
chain: GIKYIKDDVILNEPSADAPAALYQTIEENIKIFEEEEVEFISVPVPEFADSDPANIVHDFNKKLTAYLDLNLDKCYVIPLNTSIVMPPRNLLELLINIKAGTYLPQSYLIHEHMVITDRIENIDHLGFFIYRLCHDKETYKLQRRET

Columns and labels:
human Aβ1-40 peptide = human Aβ1-40 peptide (human); experiment: cell-based or functional assay
[1] = biological target: B1; experiment: ESI-MS
Experimental: Protein and peptides were mixed at 22° C. directly before analysis at a final protein concentration of 20 μM and a final peptide concentration of 50 μM. Data was acquired using a QTOF Ultima API mass spectrometer (Waters, Milford, Mass., USA) equipped with a Z-spray source operated in the positive-ion mode. Samples were introduced via nano-electrospray using metal-plated borosilicate glass capillary needles (Proxeon, Denmark). The source temperature was 80° C., the capillary voltage 1.7 kV, and the cone and RF lens 1 potentials were 100 and 38 V, respectively. The mass spectrometer was operated in single-reflector mode at a resolution of 10 000 (full width half maximum definition), and the mass scale was calibrated using myoglobin. Scans were acquired at a rate of 1 scan per 2 sec between 500 and 4000 m/z. The collision gas was argon at 5.2×10⁻⁵ mbar. Mass spectra were smoothed using the Waters MassLynx software.
Mass spectra were recorded to investigate the presence and stoichiometry of protein-peptide complexes in the gas phase.

human Aβ1-40 peptide (human), sequence (peptide, as listed by the source): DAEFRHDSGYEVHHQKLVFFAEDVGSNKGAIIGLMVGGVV

| Binder | fold prolongation of the half time of Aβ1-40 aggregation, ThT fluorescence (human Aβ1-40 peptide) | binding result [1] |
| --- | --- | --- |
| B1 | ~4.5 times |  |
| H-KFFEYNGKKFFE-OH (also called synthetic peptide) |  | binds |
